# Experiment: yeast display, Sf9 membrane polyspecificity reagent, FACS + sequencing; frameworks hold sequencing errors
# Summary of the method: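 Using colony PCR, genes from sorted yeast display clones were amplified, then sequenced on MiSeq at 2 × 250 and filtered by CDR length. The clones had been stained with 10% biotinylated, detergent-solubilized Sf9 membrane reagent for 1 hour at 4 °C and sorted by FACS into low and high (top ~1%) gates on anti-HA and streptavidin fluorescence. Polyreactivity labels come from the gate of origin.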
row,Sequence,polyreactivity (PSR sort gate)
1,QVQLVESGGGLVQAGGSLRLSCAASGRTFPGYAMGWYRQAPGKERELVAAITSSGDDTYYADSVKGRFTISRDNAKNTVYLQMNSLKPEDTAVYYCRLFRRSADSSYDYEYWGQGTQVTVSS,low polyreactivity
2,QVQLVESGGGLVQAGGSLRLSCAASGRTFPGYAMGWYRQAPGKERELVATITLSDGSTYYADSVKGRFTISRDNAKTTVYLQMNSLKPEDTAVYYCNARRSYFLRYGVNYWGQGTQVTVSS,low polyreactivity
3,QVQLVESGGGLVQAGGSLRLSCAASGRTFPGYAMGWYRQAPGKERELVAVISWSGGRTNYADSVKGRFTISRDNAKNTVYLQMNSLKPEDTAVYYCAARYHGHSNDYWGQGTQVTVSS,low polyreactivity
4,QVQLVESGGGLVQAGGSLRLSCAASGRTFPGYGMGWYRQAPGKERELVAVITSNGGITYYADSVKWRFTISRDIAKYTVYLVMNRLIAEDTAVYFCAAYEIYYEFVCWGQGSQVTVSS,low polyreactivity
5,QVQLVESGGGLVQAGGSLRLSCAASGRTFPPYGMGWYRQAPGKERELVAAISKSSGSTNYADSVKGRFTISRDNAKNTVYLQMNSLKPEDTAVYYCNVDLYRWSKLAGAYRMDYWGQGTQVTVSS,low polyreactivity
6,QVQLVESGGGLVQAGGSLRLSCAASGRTFPRYAMGWYRQAPGKERELVAAISRGGGTTYADSVKGRFTISRDNAKNTVYLQMNSLKPEDTAVYYCATRSPYSYPNLYYWGQGTQVTVSS,high polyreactivity
7,QVQLVESGGGLVQAGGSLRLSCAASGRTFPSNAMGWYRQAPGKEREFVASITYSGGRTYYADSVKGRFTISRDNAKNTVYLQVNSLKPEDTAVYYCAAYPQFWYLDYNYWGQGTQVTVSS,high polyreactivity
8,QVQLVESGGGLVQAGGSLRLSCAASGRTFPSYAMGWYRQAPGKERELVAAITTSGGSTYYADSVKGRFTISRDNAKNTVYLQMNSLKPEDTAVYYCAAAKPYSGSQYYYWGQGTQVTVSS,high polyreactivity
9,QVQLVESGGGLVQAGGSLRLSCAASGRTFPSYVMGWYRQAPGKERELVAAITATGASTYYADSVKGRFTISRDNAKNTVYLQMNSQKPEDTAVYYCAASRYGLYENGYEYYWGQVTQVTVSS,low polyreactivity
10,QVQLVESGGGLVQAGGSLRLSCAASGRTFPVNAMGWYRQAPGKEREFVAVISSTGTTYYADSVKGRFTISLDNAKITVYLQMNSLKPEDTAVYYCARRSNRRAYVNRVGVLRTVDYWGQGTQVTVSS,low polyreactivity
11,QVQLVESGGGLVQAGGSLRLSCAASGRTFPWYGKGWYRPAPGKERELVAAISRTGGNTYYADSVKGRFTISRDNAKNTVYLQMNSLKPEDTAVYYCNAGYYSNRYYFYDYGYWGQGTQVTVSS,high polyreactivity
12,QVQLVESGGGLVQAGGSLRLSCAASGRTFPYNAMGRYRQAPGKERELVAAISGRGGSTYYADSVKGRFTISRDNAKNTVYLQMNSLKPEDTAVYYCAVYTIYGFYYWGQGTQVTVSS,high polyreactivity
13,QVQLVESGGGLVQAGGSLRLSCAASGRTFPYNAMGWYRQAPGKEMELVAVISSSGGSTYYADSVKGRFTISRDNAKNTVYLQMNSLKPEDTAVYYCNTRPYYYRRPGYRYSGYDYWGQGTQVTVSS,high polyreactivity
14,QVQLVESGGGLVQAGGSLRLSCAASGRTFPYYAMGWYRQAPGKERELVAAISSSGGSTYYADSVKGRFTISRDNAKYTVYLQMNSLKPEDTAVYYCAAVYQFIKWGDRYEYWGQGTQVTVSS,high polyreactivity
15,QVQLVESGGGLVQAGGSLRLSCAASGRTFPYYAMGWYRQAPGKERELVAAITSGGSTYYADSVKGRFTISRDNAKNTVYLQMNSLKPEDTAVYYCNALLGYYRWRRPVDYSYGSWGQGTQVTVSS,high polyreactivity
16,QVQLVESGGGLVQAGGSLRLSCAASGRTFPYYAMGWYRQATGKERELVARIRSDGSTNYADSVKGRFTISRDNANNTVYLQMNSLKPEDTAVYYCAGKPYPSLFFHYGYWGQCTQVTVSS,low polyreactivity
17,QVQLVESGGGLVQAGGSLRLSCAASGRTFPYYTMGWYREAPGKERELVAAIDGSGDNTYYADSVKGRFTISRDNAKNTLYLHMNSLKPEHTAVYYCTADTGLGTRDFEKRDYWGQGTQVTVSS,low polyreactivity
18,QVQLVESGGGLVQAGGSLRLSCAASGRTFPYYTMGWYRQAPGKERELVAAIDGSGDNTYYADSVKGRFTISRDYAKNTVYLQMNSLKPEDTAVYYCTAEQWGSLDYWGQGTQVTVSA,low polyreactivity
19,QVQLVESGGGLVQAGGSLRLSCAASGRTFPYYTMGWYRQAPGKERELVAAITSGGSTHYADSVKGRFTISRDNAKNTVYLQMNSLKPEDTAVYYCAADLFYHSYGYEYWGQGTQVTVSS,low polyreactivity
20,QVQLVESGGGLVQAGGSLRLSCAASGRTFPYYVMGWYRQAPGKERELVAAINSGGRTNYADSVKGRFTISRDNAKNTVYLQMNSLKPEETAVYYCTKRGHPARLGYYYWGQGTQVTGSS,low polyreactivity
21,QVQLVESGGGLVQAGGSLRLSCAASGRTFQDNAMVWYRQAPGKEREFVAAINNSGGNTYYADSVKGRFTISRDNAKNTVYLQMNSLKPEDTAVYYCNARHTWHQTYDYWGQGTQVTVSS,low polyreactivity
22,QVQLVESGGGLVQAGGSLRLSCAASGRTFQFYTMGWYRQAPGKERELVAVITVSSAATFYADTVKGRFTISRDNAKNTVSLQMNSLKPEDTAVYYCAAGLVLIVGMDSWGQGTQVTVSS,low polyreactivity

row,Sequence,polyreactivity (PSR sort gate)
1,QVQLVESGGGLVQAGGSLRLSCAASGRTFQINAMGWYRQAPGKERELVAAITWSGGSTYYADSVKGRFTISRDNAKNTVYLQMNSLKPEDTAVYYCNKRYRAYATLNLIAGYNYWGQGTQVTVSS,low polyreactivity
2,QVQLVESGGGLVQAGGSLRLSCAASGRTFQNYAMGWYRQAPGKERELVADITSGGSTYADSVKGRFTISRDNAKNTVYLQMNSLKPEDTAVYYCNADRTYPEPAEYYYWGQGTQVTVSS,low polyreactivity
3,QVQLVESGGGLVQAGGSLRLSCAASGRTFQPYAMGWYRQAPGKERELVASISRSGGRTYYADSVKGRFTISRDNAKNTVYLQMNSLKPEDTAVYYCAADIPYTRSIKYYYWGQGTQVTVSS,high polyreactivity
4,QVQLVESGGGLVQAGGSLRLSCAASGRTFQRYAMGWYRQAPGKERELVAAISRGGITYYADSVKGRFTISRDNAKNTVYLQMNSLKPEDTAVYYCAALYRYYHESSPFDYWGQGTQVTVSS,high polyreactivity
5,QVQLVESGGGLVQAGGSLRLSCAASGRTFQRYAMVWYRQAPGKERELVPAITSRGGSTYYSDSVKGRFTISRDNAKNTVYLQMNSLKPEDTAVYYCNARSRRTLSEPQSEMDYWGQGTQVTVSS,high polyreactivity
6,QVQLVESGGGLVQAGGSLRLSCAASGRTFQWYTMGWYRQAPGKERELVAAISLSGTSTYYADSVKGRFTISRDNAKNTVYLQMNSLNPEDTAVYYCAAEDIGRYYRLDYWGQGTQVTVSS,low polyreactivity
7,QVQLVESGGGLVQAGGSLRLSCAASGRTFQYNAMGWYRQAPGKEREFVAGITSIGGRTYYADSVKGRFTISRDNAKNTVYLQMNSLKPEETAVYYCAAVRGLAVGYDYWGQGTQVTVSS,high polyreactivity
8,QVQLVESGGGLVQAGGSLRLSCAASGRTFQYYAMGWYRQAPGKERELVAAISSGGSTYYADSVKGRFTISRDNAKNTVYLQMNSLKPEDTAVYYCTARWGYRRGYWGQGTQVTVSS,high polyreactivity
9,QVQLVESGGGLVQAGGSLRLSCAASGRTFQYYAVGWYRQAPGKERELVAAITSGGSTYYADSVKGRFTISRDNAKNTVYLQMNSLKPEDTAVYYCAAKRNVQLGYTVQSLYDYWGLGTQVTVSS,low polyreactivity
10,QVQLVESGGGLVQAGGSLRLSCAASGRTFRAYAMGWYRQAPGKERELVAAITASGTSTYYADSVKGRFTISRDNAKNTVYLQMNSLKPEDTAVYYCARGSWRHFRLYGFDYWGQGTQVTVSS,low polyreactivity
11,QVQLVESGGGLVQAGGSLRLSCAASGRTFRENAMGWYRQAPGKERELVAAISWRAGSTYYADSVKGRFTISRDNAKNTVYLQMNSLKPEDTAVYYCAAKYTVSFYLWGTFNYWGQGTQVTVSS,high polyreactivity
12,QVQLVESGGGLVQAGGSLRLSCAASGRTFRFTAMGWYRQAPGKERELVAAISFRGGSTYYADSVKGRFTISRDNAKNTVYLQMNSLKPEDTAVYYCAARARTGTYRDMYYWGQGTQVTVSS,high polyreactivity
13,QVQLVESGGGLVQAGGSLRLSCAASGRTFRFYAMGWYRQAPGKERELVAAISSGGSTYYADSVKGRFTISRDNAKNTVYLQLNSLKAEDTAVYYCAVKQRDKFAGGRNDYWGQGTQVTVSS,high polyreactivity
14,QVQLVESGGGLVQAGGSLRLSCAASGRTFRFYAMGWYRQAPGKERELVAAISYSGGSTYYADSVKGRFTISRDNAKNTVYLQMNSLKPEDTAVYYCNARYRLGSPVGYNYYTGYDYWGQGTQVTVSS,high polyreactivity
15,QVQLVESGGGLVQAGGSLRLSCAASGRTFRFYAMGWYRQAPGKERELVASISSSGGSTYYADSVKGRFTISRDNAKNTVYLQMNSLKPEDTAVYYCNADVTNWEDDYYYWGQGTQVTVSS,high polyreactivity
16,QVQLVESGGGLVQAGGSLRLSCAASGRTFRGNAMGWYRQAPGKERELVAAGGSTYYADSVKGRFTISRDNAKNTVYLQINSLKPEDTAVYYCAAALGFSRYSWFCYGYWGQGTQVTGSS,low polyreactivity
17,QVQLVESGGGLVQAGGSLRLSCAASGRTFRGNAMGWYRQAPGKERELVAAISWRGTSTYYADSVKGRFTISRDNAKNTVYLQMNSLKPEDTAVYYCNTQRQLGERFYDRSRQGDYWGQGTQVTVSS,high polyreactivity
18,QVQLVESGGGLVQAGGSLRLSCAASGRTFRGNAMGWYRQAPGKESELVAVITASGSTTYADSVKGRFTISRDNAKNTVYLQMNSLKPEDTAVYYCAKYVPWYTLWLGGTDRDYWGQGTQVTVSS,low polyreactivity
19,QVQLVESGGGLVQAGGSLRLSCAASGRTFRGYAMGWYRQAPGKERELVAAISSSGGRTYYADSVKGRFTISRDNAKNTVYLQMNSLKPEDTAVYYCAAAVTLSPAQYGYWGQGTQVTVSS,high polyreactivity
20,QVQLVESGGGLVQAGGSLRLSCAASGRTFRGYAMGWYRQAPGKERELVAAITSGGSTNYADSVKGRFTISRDHAKNSVYLQMNSLKPEDTAVDYCNRDTSKYGLWRYIYDYWGQGTQVTVSS,low polyreactivity
21,QVQLVESGGGLVQAGGSLRLSCAASGRTFRGYAMGWYRQAPGKERELVAAITSSGGRTYYADSVKGRFTISRDNAKNTVYLQMNSLKPEDTAVYYCAKDYYSPRGYDYWGQGTQVTVSS,high polyreactivity

# Reference: the nanobody polyreactivity screen of Harvey et al. (2022)
